Our source for the HIV LTR transactiv. (fold change) and HTLV LTR transactiv. (fold change) values is patent US20120090043A1, “TARGETS FOR RETROVIRUS ASSOCIATED DISEASES” (priority 2009, published 2012).

Targets include HOXA3 (human) (UniProt O43365); HOXD3 (human) (UniProt P31249); LNX2 (human) (UniProt Q8N448); LOC541468 (human) (UniProt Q96LR2); MIZF (human) (UniProt Q9BQA5); PDE9A (human) (UniProt O76083); SF3A3 (human) (UniProt Q12874); C20orf141 (human) (UniProt Q9NUB4); CCDC24 (human) (UniProt Q8N4L8); DGCR6L (human) (UniProt Q9BY27); DHRS10 (human) (UniProt Q9BPX1); FANCG (human) (UniProt O15287); FATE1 (human) (UniProt Q969F0); FLJ22471 (human) (UniProt Q53HC0); HOXB9 (human) (UniProt P17482); KIAA1949 (human) (UniProt Q6NYC8); KIF9 (human) (UniProt Q9HAQ2); KRT8 (human) (UniProt P05787); LENG1 (human) (UniProt Q96BZ8); MRPS6 (human) (UniProt P82932); MYEF2 (human) (UniProt Q9P2K5); NEFL (human) (UniProt P07196); NIF3L1 (human) (UniProt Q9GZT8); NOS3 (human) (UniProt P29474); SPG21 (human) (UniProt Q9NZD8); TTC23 (human) (UniProt Q5W5X9); ZNF614 (human) (UniProt Q8N883).

Assay in all cases: cell-based or functional assay

Regarding HIV-1 Tat, the HIV LTR transactiv. (fold change) is 0.29 fold change with HOXA3 (human); 7.3 fold change in the assay with HOXD3 (human); 0.26 fold change in the assay with LNX2 (human); 2.38 fold change in the assay with LOC541468 (human); 2.5 fold change with MIZF (human); 0.28 fold change with PDE9A (human). For the same substance, the HIV LTR transactiv. (fold change) with SF3A3 (human) worked out at 0.49 fold change.

Take HTLV-1 Tax p40: the HTLV LTR transactiv. (fold change) worked out at 2.8 fold change in the assay with C20orf141 (human); 2.88 fold change with CCDC24 (human); 0.24 fold change in the assay with DGCR6L (human); 0.41 fold change with DHRS10 (human); 3.48 fold change with FANCG (human); 0.49 fold change in the assay with FATE1 (human). Also, the HTLV LTR transactiv. (fold change) in the assay with FLJ22471 (human) amounted to 2.25 fold change; with HOXB9 (human), 3.69 fold change; with KIAA1949 (human) it was 0.35 fold change; with KIF9 (human), 0.37 fold change; with KRT8 (human), 0.24 fold change; with LENG1 (human) it was 0.34 fold change. In addition, the HTLV LTR transactiv. (fold change) in the assay with LNX2 (human) amounted to 0.28 fold change; with MRPS6 (human), 0.38 fold change; with MYEF2 (human), 2.53 fold change; with NEFL (human), 0.45 fold change; with NIF3L1 (human), 0.39 fold change; in the assay with NOS3 (human), 0.45 fold change. In addition, the HTLV LTR transactiv. (fold change) with SPG21 (human) is 0.21 fold change; with TTC23 (human), 0.21 fold change; with ZNF614 (human), 5.24 fold change.
